Test results: the supplement of paper PMC9170038

Tests used:
MS2 coat protein [1] = test: apparent KD of MS2 coat protein, switch ON state; designed switch direction (-1 OFF switch, 1 ON switch): 1; higher = weaker reporter binding; settings: FMN input: 0 or 200 uM; Eterna round: R93 (includes R88 designs)
Summary of the method: (§1)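 Values are apparent KD, taken as the median for each design of fits to normalised binding curves from individual clusters. The designed RNA switches were transcribed on-chip from Illumina sequencing clusters and exposed to SNAP-549-labelled MS2 coat protein at twofold increasing amounts from 0.7 or 1.5 nM to 3 µM. Titration used 100 mM Tris-HCl pH 7.5, 80 mM KCl and 4 mM MgCl2, without or with constant ligand.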

MS2 coat protein [2] = test: apparent KD of MS2 coat protein, switch OFF state (with FMN for OFF switches, without FMN for ON switches); designed switch direction (-1 OFF switch, 1 ON switch): 1; higher = weaker reporter binding; settings: FMN input: 0 or 200 uM; Eterna round: R93 (includes R88 designs)
Summary of the method: as §1

AAAAAAUAAAAAAAGGAUAUAAAUCCUAGAACAUGAGGAUCACCCAUGUACUAGGAAAAAAUAAAAAAGAAGGAAAAAUAAAAAA [SS2: MS2 19]
apparent KD of MS2 coat protein (MS2 coat protein [1]): 18.1 nM
apparent KD of MS2 coat protein (MS2 coat protein [2]): 17.3 nM

AAAAAACAUGAGGAUCACCCAUGUCGAAAGACAUGAGGAUAUGUACAGACUUCGGUCUGUACAGAAGGCAUGUAAA [SS1 - 1016]
apparent KD of MS2 coat protein (MS2 coat protein [1]): 104 nM
apparent KD of MS2 coat protein (MS2 coat protein [2]): 813 nM

GGGUAAGAGAGAGAGGAUAUCCAAAGGAAAACAUGAGGAUCACCCAUGUAGAAGGUAGGAAAUUGGGAGAAGGCUCAAGAGAGAG [salish99-ss2-136]
apparent KD of MS2 coat protein (MS2 coat protein [1]): 29.8 nM
apparent KD of MS2 coat protein (MS2 coat protein [2]): 29.7 nM

UGUAGGAAGAGAGAGGAUAUCCAAAGGAAAACAUGAGGAUCACCCAUGUAAAAGGUAGGAAAUUGGGAGAAGGCUCAAGAGAGAG [salish99-ss2-082]
apparent KD of MS2 coat protein (MS2 coat protein [1]): 29 nM
apparent KD of MS2 coat protein (MS2 coat protein [2]): 52.7 nM

AAAGACAUAGUGCAGGAUAUGGUAAUAGUCACAUGAGGAUCACCCAUGUUCUUUUAUAAGAACGAUCAGAAGGGCGGUAAAAAAA [SameState2 Malc#13]
apparent KD of MS2 coat protein (MS2 coat protein [1]): 359 nM
apparent KD of MS2 coat protein (MS2 coat protein [2]): 666 nM

AAAUAACAUGAGGAUCACCCAUGUCAAAUAAAUCGAGGAUAUGGGCCCGAGUUCCGGGAGCCAGAAGGCGAAAAGA [Ceusrete]
apparent KD of MS2 coat protein (MS2 coat protein [1]): 28.9 nM
apparent KD of MS2 coat protein (MS2 coat protein [2]): 51.7 nM

AAGAAACAUGAGGAUCACCCAUGUCAAGAGAGACAAGGAUAUCUGAAUUAAUUAAAUUAAGGAGAAGGUGUGAAAA [71%, Same state of confusion2, 1]
apparent KD of MS2 coat protein (MS2 coat protein [1]): 201 nM
apparent KD of MS2 coat protein (MS2 coat protein [2]): 253 nM

AAUAUAUUAUUUAAGGAUAUCAUAGGAAACACAUGAGGAUCACCCAUGUGGGAAACUUGGUCGGGUGAGAAGGUGGAUAAUAUAU [Samwise Clockwise 36 - Jieux - Same State 2]
apparent KD of MS2 coat protein (MS2 coat protein [1]): 17.4 nM
apparent KD of MS2 coat protein (MS2 coat protein [2]): 24.6 nM

AAAAAAAAAGUAUAGGAUAUCCGAGUGGUAACAUGAGGAUCACCCAUGUGAAGAAAGGAAGAUGAGGAGAAGGAUACAAAAAAAAA [Mod of Mat of Nando]
apparent KD of MS2 coat protein (MS2 coat protein [1]): 27.9 nM
apparent KD of MS2 coat protein (MS2 coat protein [2]): 65.3 nM

GAAAAACAUGAGGAUCACCCAUGUGAAAAUAUGGGAGGAUAUACAAGGACGAAAGUCAAGGUAGAAGGCCUAAAAG [Mat - Same State 1 - Eli mod - 27]
apparent KD of MS2 coat protein (MS2 coat protein [1]): 39.4 nM
apparent KD of MS2 coat protein (MS2 coat protein [2]): 78.8 nM

GUAGACAUAGUUCAGGAUAUAGGAAUAGUCACAUGAGGAUCACCCAUGUGCAUUUAUAUGCGCACUUAGAAGGGAGGUAGUUAAC [Mat - Same state - Malcolm Mod - D121]
apparent KD of MS2 coat protein (MS2 coat protein [1]): 26.3 nM
apparent KD of MS2 coat protein (MS2 coat protein [2]): 25 nM

CGGAAGGAGAGAGAGGAUAUCCAAAGGAAAACAUGAGGAUCACCCAUGUAGAAGGUAGGAAAUUGGGAGAAGGCUCAACAGAGAG [salish99-ss2-130]
apparent KD of MS2 coat protein (MS2 coat protein [1]): 19.1 nM
apparent KD of MS2 coat protein (MS2 coat protein [2]): 33.4 nM

AACAACAAUAUGAAGGAUAUCCACAACAAGACAUGAGGAUCACCCAUGUAAACAAAGAACAUACAGGAGAAGGUCAAGGGUGAAA [JR_SS002_Sub1203]
apparent KD of MS2 coat protein (MS2 coat protein [1]): 56.2 nM
apparent KD of MS2 coat protein (MS2 coat protein [2]): 39 nM

UAAAAACAUGAGGAUCACCCAUGUGAGAACAUGGGAGGAUAUACAAAGACGAAAGUCGAAGUAGAAGGCCUAAAAU [Mat - Same State 1 - Mod - D173]
apparent KD of MS2 coat protein (MS2 coat protein [1]): 178 nM
apparent KD of MS2 coat protein (MS2 coat protein [2]): 25.7 nM

AAAAUACAUGAGGAUCACCCAUGUGAAAAUAUGGAAGGAUAUCAUGGAAAAAAAAAAACAUGAGAAGGUCCAAAAA [SS! 1 MT 9]
apparent KD of MS2 coat protein (MS2 coat protein [1]): 22 nM
apparent KD of MS2 coat protein (MS2 coat protein [2]): 123 nM

GAAGACAUAGUUCAGGAUAUAGGAAUAGUCACAUGAGGAUCACCCAUGUGCAUUUAUAUGCGCACUUAGAAGGGAGGUAGUUAUC [SameState2 Malc#23]
apparent KD of MS2 coat protein (MS2 coat protein [1]): 36 nM
apparent KD of MS2 coat protein (MS2 coat protein [2]): 25 nM

GGGAGACAUGAGGAUCACCCAUGUGAGAAGAGGCGAGGAUAUCGAAAAAAAAAAAAAAAACGAGAAGGCGCGAGAG [salish99-SS1-005]
apparent KD of MS2 coat protein (MS2 coat protein [1]): 63.7 nM
apparent KD of MS2 coat protein (MS2 coat protein [2]): 28.6 nM

ACUUCACAUGAGGAUCACCCAUGUCAGGCCGGACUAGGAUAUUAUCAAGCAGCGUAACCAUAAGAAGGAGUAGGAA [JR_SS001_Sub313]
apparent KD of MS2 coat protein (MS2 coat protein [1]): 57.7 nM
apparent KD of MS2 coat protein (MS2 coat protein [2]): 82.5 nM
